Assay results as given in patent US20220356217A1.

Molecular target: human integrin αIIbβ3 on cells (K562 cells stably expressing αIIbβ3; human platelets) (human) (UniProt P08514)
Assay: FACS; displacement of Alexa647-labeled soluble fibrinogen from activated αIIbβ3-K562 cells

- IC50: 73.2 nM
Substance: eptifibatide (peptide)
